In patent US20140072613A1 (published 2014):

T1: MuSK(h) (human, UniProt O15146 517-869, limits assumed)
T1 sequence (looked up): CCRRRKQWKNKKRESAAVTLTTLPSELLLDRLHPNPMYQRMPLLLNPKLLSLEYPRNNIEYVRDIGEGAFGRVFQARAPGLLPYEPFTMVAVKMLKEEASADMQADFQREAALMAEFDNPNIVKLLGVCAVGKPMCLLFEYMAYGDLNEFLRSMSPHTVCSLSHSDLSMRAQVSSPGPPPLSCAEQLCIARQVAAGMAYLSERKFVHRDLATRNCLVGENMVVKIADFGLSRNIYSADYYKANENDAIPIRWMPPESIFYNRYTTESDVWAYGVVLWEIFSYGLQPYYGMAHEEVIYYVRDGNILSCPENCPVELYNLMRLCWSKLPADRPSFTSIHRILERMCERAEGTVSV

T2: PKCι(h) (human, UniProt P41743 1-596)
T2 sequence (looked up): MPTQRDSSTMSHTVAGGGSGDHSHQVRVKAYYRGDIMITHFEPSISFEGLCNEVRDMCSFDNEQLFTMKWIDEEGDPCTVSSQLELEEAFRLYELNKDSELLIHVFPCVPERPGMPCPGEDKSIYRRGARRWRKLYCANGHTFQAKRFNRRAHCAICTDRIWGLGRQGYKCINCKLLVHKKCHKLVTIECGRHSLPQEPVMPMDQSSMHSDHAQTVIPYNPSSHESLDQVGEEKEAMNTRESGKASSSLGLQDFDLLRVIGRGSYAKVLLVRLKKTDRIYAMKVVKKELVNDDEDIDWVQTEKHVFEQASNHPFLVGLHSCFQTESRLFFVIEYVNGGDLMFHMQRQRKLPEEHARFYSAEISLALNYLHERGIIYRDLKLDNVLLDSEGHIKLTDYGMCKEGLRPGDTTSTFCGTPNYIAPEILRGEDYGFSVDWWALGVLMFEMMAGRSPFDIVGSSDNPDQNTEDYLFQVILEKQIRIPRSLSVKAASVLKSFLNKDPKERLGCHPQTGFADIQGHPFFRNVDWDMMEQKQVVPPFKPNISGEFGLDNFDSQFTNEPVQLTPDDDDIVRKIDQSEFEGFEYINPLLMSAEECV

T3: EphA5(h) (human, UniProt P54756 595-1037, limits assumed)
T3 sequence (looked up): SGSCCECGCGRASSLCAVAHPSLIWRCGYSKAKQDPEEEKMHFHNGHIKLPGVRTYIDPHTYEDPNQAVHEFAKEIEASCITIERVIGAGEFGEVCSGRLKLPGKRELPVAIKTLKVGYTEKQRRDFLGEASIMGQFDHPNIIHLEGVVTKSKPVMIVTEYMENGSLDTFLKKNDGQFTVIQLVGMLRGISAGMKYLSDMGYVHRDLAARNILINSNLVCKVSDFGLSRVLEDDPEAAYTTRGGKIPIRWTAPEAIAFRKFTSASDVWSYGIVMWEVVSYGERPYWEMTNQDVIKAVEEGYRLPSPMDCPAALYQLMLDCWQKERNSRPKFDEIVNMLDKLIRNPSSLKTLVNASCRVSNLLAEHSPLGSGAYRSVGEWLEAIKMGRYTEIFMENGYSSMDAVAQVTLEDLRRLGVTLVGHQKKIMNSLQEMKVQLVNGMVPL

T4: SGK(h) (human, UniProt O00141 60-431, limits assumed)
T4 sequence (looked up): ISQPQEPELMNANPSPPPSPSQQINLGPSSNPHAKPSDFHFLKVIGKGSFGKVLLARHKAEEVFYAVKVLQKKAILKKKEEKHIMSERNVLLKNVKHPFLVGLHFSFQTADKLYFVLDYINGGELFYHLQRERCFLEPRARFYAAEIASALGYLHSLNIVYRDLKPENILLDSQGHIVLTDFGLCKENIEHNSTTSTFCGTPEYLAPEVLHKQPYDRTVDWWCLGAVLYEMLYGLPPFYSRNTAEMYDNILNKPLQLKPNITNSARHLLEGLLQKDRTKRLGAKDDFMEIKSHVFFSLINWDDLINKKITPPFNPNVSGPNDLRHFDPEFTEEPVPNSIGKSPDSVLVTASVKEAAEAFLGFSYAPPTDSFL

T5: CHK1(h) (human, UniProt O14757 1-476)
T5 sequence (looked up): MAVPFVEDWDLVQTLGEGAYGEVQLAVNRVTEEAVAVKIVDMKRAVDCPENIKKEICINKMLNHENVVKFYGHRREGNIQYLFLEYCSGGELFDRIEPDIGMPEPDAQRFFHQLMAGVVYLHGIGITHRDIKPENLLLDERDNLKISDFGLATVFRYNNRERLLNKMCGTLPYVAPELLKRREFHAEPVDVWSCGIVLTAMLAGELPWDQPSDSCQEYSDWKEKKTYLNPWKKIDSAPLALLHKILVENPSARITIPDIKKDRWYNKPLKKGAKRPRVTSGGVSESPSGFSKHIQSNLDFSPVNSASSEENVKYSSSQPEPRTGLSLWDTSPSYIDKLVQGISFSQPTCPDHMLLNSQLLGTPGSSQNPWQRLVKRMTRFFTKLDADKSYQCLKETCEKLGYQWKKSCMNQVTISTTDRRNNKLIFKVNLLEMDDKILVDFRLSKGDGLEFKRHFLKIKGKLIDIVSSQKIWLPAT


Legend:
Assay in all cases: cell-based or functional assay
ALK(h) = ALK(h) (human, UniProt Q9UM73 1058-1620, limits assumed)
MuSK(h) = biological target: T1, MuSK(h)
JNK1α1(h) = JNK1α1(h) (human, UniProt P45983-2 1-384)
IR(h) = IR(h) (human, UniProt P06213 1005-1310, limits assumed)
PKCι(h) = biological target: T2, PKCι(h)
EphA5(h) = biological target: T3, EphA5(h)
SGK(h) = biological target: T4, SGK(h)
PDGFRα(V561D)(h) = PDGFRα(V561D)(h) (human, UniProt P16234 550-1089, limits assumed)
CHK1(h) = biological target: T5, CHK1(h)

IR(h), sequence (P06213 1005-1310 limits assumed): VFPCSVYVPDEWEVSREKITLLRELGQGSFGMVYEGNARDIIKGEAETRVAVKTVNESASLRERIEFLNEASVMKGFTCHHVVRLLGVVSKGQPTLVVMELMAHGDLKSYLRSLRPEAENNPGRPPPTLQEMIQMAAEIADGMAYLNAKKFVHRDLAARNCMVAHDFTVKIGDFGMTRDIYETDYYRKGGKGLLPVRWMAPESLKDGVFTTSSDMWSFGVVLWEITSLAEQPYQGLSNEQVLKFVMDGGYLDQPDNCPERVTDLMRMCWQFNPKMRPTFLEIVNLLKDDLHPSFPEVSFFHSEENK
ALK(h), sequence (Q9UM73 1058-1620 limits assumed): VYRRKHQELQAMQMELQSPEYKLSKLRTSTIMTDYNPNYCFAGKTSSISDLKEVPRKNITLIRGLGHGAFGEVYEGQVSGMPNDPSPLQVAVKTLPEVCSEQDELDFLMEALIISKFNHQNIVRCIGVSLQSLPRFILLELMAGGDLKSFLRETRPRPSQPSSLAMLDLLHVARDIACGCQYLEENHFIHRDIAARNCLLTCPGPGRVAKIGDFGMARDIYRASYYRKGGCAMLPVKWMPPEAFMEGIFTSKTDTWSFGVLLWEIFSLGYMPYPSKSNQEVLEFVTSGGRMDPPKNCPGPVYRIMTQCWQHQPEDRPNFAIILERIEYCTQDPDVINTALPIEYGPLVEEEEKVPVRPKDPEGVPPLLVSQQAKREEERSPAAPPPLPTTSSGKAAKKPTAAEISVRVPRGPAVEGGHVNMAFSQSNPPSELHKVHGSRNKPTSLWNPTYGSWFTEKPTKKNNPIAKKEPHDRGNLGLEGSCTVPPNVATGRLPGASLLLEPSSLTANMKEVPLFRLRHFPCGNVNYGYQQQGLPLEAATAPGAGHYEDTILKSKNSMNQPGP
JNK1α1(h), sequence (P45983 other isoform, or with tags, fused parts or gaps limits assumed): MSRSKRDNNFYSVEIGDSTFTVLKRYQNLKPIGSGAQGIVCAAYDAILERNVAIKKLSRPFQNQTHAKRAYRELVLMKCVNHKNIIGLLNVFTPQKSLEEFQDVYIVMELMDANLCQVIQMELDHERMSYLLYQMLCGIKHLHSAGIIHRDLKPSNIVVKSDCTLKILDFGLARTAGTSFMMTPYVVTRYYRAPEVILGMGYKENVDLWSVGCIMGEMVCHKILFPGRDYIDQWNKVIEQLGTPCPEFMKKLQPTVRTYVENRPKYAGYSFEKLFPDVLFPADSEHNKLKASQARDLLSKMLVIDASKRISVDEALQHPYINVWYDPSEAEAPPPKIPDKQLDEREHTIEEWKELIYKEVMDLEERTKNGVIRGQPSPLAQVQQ
PDGFRα(V561D)(h), sequence (P16234 550-1089 V561D limits assumed): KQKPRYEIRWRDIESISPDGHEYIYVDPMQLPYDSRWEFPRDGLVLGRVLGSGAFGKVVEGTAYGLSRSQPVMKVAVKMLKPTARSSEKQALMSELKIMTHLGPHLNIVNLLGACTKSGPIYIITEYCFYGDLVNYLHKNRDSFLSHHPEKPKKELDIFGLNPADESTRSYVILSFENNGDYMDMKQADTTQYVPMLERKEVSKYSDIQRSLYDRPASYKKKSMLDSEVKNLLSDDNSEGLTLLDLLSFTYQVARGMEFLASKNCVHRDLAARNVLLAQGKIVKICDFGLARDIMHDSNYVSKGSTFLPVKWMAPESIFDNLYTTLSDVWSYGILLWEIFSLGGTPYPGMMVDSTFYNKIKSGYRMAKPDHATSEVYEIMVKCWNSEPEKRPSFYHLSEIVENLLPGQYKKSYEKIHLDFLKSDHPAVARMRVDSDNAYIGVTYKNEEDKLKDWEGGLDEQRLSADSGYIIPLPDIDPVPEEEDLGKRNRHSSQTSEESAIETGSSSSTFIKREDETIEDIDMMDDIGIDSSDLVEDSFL

| Binder | % activity, 100 µM (ALK(h)) | % activity, 100 µM (MuSK(h)) | % activity, 100 µM (JNK1α1(h)) | % activity, 100 µM (IR(h)) | % activity, 100 µM (PKCι(h)) | % activity, 100 µM (EphA5(h)) | % activity, 100 µM (SGK(h)) | % activity, 100 µM (PDGFRα(V561D)(h)) | % activity, 100 µM (CHK1(h)) |
| --- | --- | --- | --- | --- | --- | --- | --- | --- | --- |
| FAKLAARLYRKALARQLGVAA [MMI-0300] | 19% | 93% | 97% | 96% | 68% | 18% | 48% | 82% | 91% |
| KAFAKLAARLYRKALARQLGVAA [MMI-0400] | 16% | 93% | 98% | 85% | 46% | 24% | 54% | 100% | 87% |
